Test results from US20160130362A1 (Genmab, published 2016).
Blank lines part the entries; values can stand above or below the binder they belong to.

Key:
[1] = molecular target: His-CD38 (His-tagged extracellular domain of human CD38) (human, UniProt P28907 43-300); assay: cell-based or functional assay
[2] = molecular target: T1, human CD38 on cells (CHO-CD38 cells, Daudi-luc cells, fresh multiple myeloma tumor cells) (human, UniProt P28907 1-300); assay: cell-based or functional assay
[3] = molecular target: T1, human CD38 on cells (CHO-CD38 cells, …); assay: cell-based or functional assay; remark: listed apart in the source
[4] = molecular target: T2, cynomolgus monkey CD38 (on lymphoid tissue, lymphocytes and monocytes) (cynomolgus monkey, UniProt Q5VAN0 1-301); assay: immunohistochemistry on frozen cynomolgus tissue sections
T2 construct: whole, on cells; also called cynomolgus CD38

[5] = molecular target: T1, human CD38 on cells (CHO-CD38 cells, …); assay: flow cytometry on fresh MM tumor cells, FITC-labelled antibody
[6] = molecular target: T1, human CD38 on cells (CHO-CD38 cells, …); assay: flow cytometry on CHO-CD38 cells, anti-human IgG-FITC detection
[7] = molecular target: T1, human CD38 on cells (CHO-CD38 cells, …); assay: flow cytometry on Daudi-luc cells, anti-human IgG-FITC detection
[8] = molecular target: T1, human CD38 on cells (CHO-CD38 cells, …); assay: flow cytometry on CHO-CD38 cells, detection with rabbit anti-human IgG-FITC (Example 4)
[9] = molecular target: T1, human CD38 on cells (CHO-CD38 cells, …); assay: cell-based or functional assay; remark: listed apart in the source
[10] = molecular target: T1, human CD38 on cells (CHO-CD38 cells, …); assay: cell-based or functional assay; remark: listed apart in the source
[11] = molecular target: T3, HA-CD38 (HA-tagged extracellular domain of human CD38, wild type) (human, UniProt P28907 43-300); assay: SPR (Biacore 3000), antibody immobilized on CM-5 chip, HA-CD38 flowed over, 25° C., mean of 3 ± SD
T3 construct: also called HA-tagged CD38; wt human CD38; not shown: HA-tag introduced by the forward PCR primer, after signal peptide SPHMM

[12] = molecular target: T2, cynomolgus monkey CD38 (on lymphoid …); assay: flow cytometry on cynomolgus lymphocytes, detection with FITC-labeled rabbit anti-human IgG (Example 11)

cGDPribose production (% of NGD control), 0.03 µg/ml antibody [1]: 102 % of NGD control | cGDPribose production (% of NGD control), 0.3 µg/ml antibody [1]: 98 % of NGD control | cGDPribose production (% of NGD control), 3 µg/ml antibody [1]: 66 % of NGD control | cGDPribose production (% of NGD control), 30 µg/ml antibody [1]: 68 % of NGD control
B1: -005 (antibody, human IgG1, V domains shown)
VH: EVQLLESGGGLVQPGGSLRLSCAVSGFTFNSFAMSWVRQAPGKGLEWVSAISGSGGGTYYADSVKGRFTISRDNSKNTLYLQMNSLRAEDTAVYFCAKDKILWFGEPVFDYWGQGTLVTVSS
VL: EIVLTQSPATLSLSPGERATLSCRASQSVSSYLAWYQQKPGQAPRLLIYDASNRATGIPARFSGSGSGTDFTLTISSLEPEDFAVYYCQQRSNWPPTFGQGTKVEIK

EC50, ADCC of Daudi-luc cells (51Cr release) [2]: 0.0097 µg/mL | EC50, ADCC of fresh MM tumor cells (51Cr release) [2]: 0.056 µg/mL | EC50, CDC of CD38-CHO cells (PI-positive cells) [3]: 0.24 µg/mL | EC50, CDC of Daudi-luc cells (PI-positive cells) [3]: > 90 µg/mL | cGDPribose production (% of NGD control), 0.03 µg/ml antibody [1]: 105 % of NGD control | cGDPribose production (% of NGD control), 0.3 µg/ml antibody [1]: 104 % of NGD control | cGDPribose production (% of NGD control), 3 µg/ml antibody [1]: 100 % of NGD control | cGDPribose production (% of NGD control), 30 µg/ml antibody [1]: 99 % of NGD control | binding result [4]: binds | EC50 [5]: 0.02 µg/mL | EC50 [6]: 0.08 µg/mL | EC50 [7]: 0.05 µg/mL | EC50 (read off the curve) [8]: ~0.2 µg/mL
B2: -024 (antibody, human IgG1, V domains shown)
VH: EVQLVQSGAEVKKPGESLKISCKGSGYSFSNYWIGWVRQMPGKGLEWMGIIYPHDSDARYSPSFQGQVTFSADKSISTAYLQWSSLKASDTAMYYCARHVGWGSRYWYFDLWGRGTLVTVSS
VL: EIVLTQSPATLSLSPGERATLSCRASQSVSSYLAWYQQKPGQAPGLLIYDASNRASGIPARFSGSGSGTDFTLTISSLEPEDFAVYYCQQRSNWPLTFGGGTKVEIK
notes: Human monoclonal IgG1 antibody; The recombinant form was cloned into pConG1f0.4 (human IgG1 constant region) and pConKappa0.4 (kappa constant region); also called antibody -024

EC50, ADCC of Daudi-luc cells (51Cr release) [2]: 0.009 µg/mL | EC50, ADCC of fresh MM tumor cells (51Cr release) [2]: 0.027 µg/mL | EC50, CDC of CD38-CHO cells (PI-positive cells) [3]: 3.14 µg/mL | EC50, CDC of Daudi-luc cells (PI-positive cells) [3]: > 90 µg/mL | cGDPribose production (% of NGD control), 0.03 µg/ml antibody [1]: 107 % of NGD control | cGDPribose production (% of NGD control), 0.3 µg/ml antibody [1]: 107 % of NGD control | cGDPribose production (% of NGD control), 3 µg/ml antibody [1]: 100 % of NGD control | cGDPribose production (% of NGD control), 30 µg/ml antibody [1]: 99 % of NGD control | Log EC50 of lysis (table captioned CDC; the text ties log EC50 values to ADCC of Daudi cells) [9]: 1.17 | EC50 of lysis of CHO-CD38 cells (table captioned ADCC; the text ties these values to CDC) [10]: 4.5 µg/mL | EC50 [5]: 0.56 µg/mL | EC50 [6]: 0.54 µg/mL | EC50 [7]: 0.26 µg/mL | Ka [11]: 1.14e+09 M⁻¹ | Kd [11]: 0.885 nM | binding result [12]: binds
B3: -003 (antibody, human IgG1, V domains shown)
VH: not shown
VL: DIQMTQSPSSLSASVGDRVTITCRASQGISSWLAWYQQKPEKAPKSLIYAASSLQSGVPSRFSGSGSGTDFTLTISSLQPEDFATYYCQQYNSYPRTFGQGTKVEIK
notes: Human monoclonal IgG1 antibody; The recombinant form was cloned into pConG1f0.4 (human IgG1 constant region) and pConKappa0.4 (kappa constant region); FITC-labelled in some assays; also called antibody -003; HuMab -003
